This series is described as follows: soluble on expression in E. coli; label from the status in PepcDB or PDB records.
Consider “MGSSHHHHHHSSGLVPRSHMEQLEEDCVHRYGVNAFVLYRLPVVKEGMVVGIVGPNGTGKSTAVKILAGQLIPNLCGDNDSWDGVIRAFRGNELQNYFEKLKNGEIRPVVKPQYVDLIPKAVKGKVIELLKKADETGKLEEVVKALELENVLEREIQHLSGGELQRVAIAAALLRNATFYFFDEPSSYLDIRQRLNAARAIRRLSEEGKSVLVVEHDLAVLDYLSDIIHVVYGEPGVYGIFSQPKGTRNGINEFLRGYLKDENVRFRPYEIKFTKTGERVEIERETLVTYPRLVKDYGSFRLEVEPGEIKKGEVIGIVGPNGIGKTTFVKMLAGVEEPTEGKIEWDLTVAYKPQYIKADYEGTVYELLSKIDASKLNSNFYKTELLKPLGIIDLYDREVNELSGGELQRVAIAATLLRDADIYLLDEPSAYLDVEQRLAVSRAIRHLMEKNEKTALVVEHDVLMIDYVSDRLMVFEGEPGKYGRALPPMGMREGMNRFLASIGITFRRDPDTGRPRANKEGSVKDREQKEKGEYYYIA”, for which the “soluble on expression in E. coli” value was “soluble”. The result for “MGSSHHHHHHSSGRENLYFQGHMEKDRKRILITGGAGFVGSHLTDKLMMDGHEVTVVDNFFTGRKRNVEHWIGHENFELINHDVVEPLYIEVDQIYHLASPASPPNYMYNPIKTLKTNTIGTLNMLGLAKRVGARLLLASTSEVYGDPEVHPQSEDYWGHVNPIGPRACYDEGKRVAETMCYAYMKQEGVEVRVARIFNTFGPRMHMNDGRVVSNFILQALQGEPLTVYGSGSQTRAFQYVSDLVNGLVALMNSNVSSPVNLGNPEEHTILEFAQLIKNLVGSGSEIQFLSEAQDDPQKRKPDIKKAKLMLGWEPVVPLEEGLNKAIHYFRKELEYQANNQGS” reads “soluble”; that for “MGSSHHHHHHSSGRENLYFQGHMRILWILPYSPWPTTSGGKTRQYHLLRSLAARGHRITVLLHSKQPVSAEDRQALEPFLERLVVLPRRPLRSLSTLLAALFAPYPLLASVNGLSAELQRTATELLREPWDVVQVEHSYSFQPYERPLRDAGQPFVLTEHNVESSLGAATYDRLPGWALPFVRYDQWRYRRWERRVMSQAAAVVAVTEKDARQLGAMLGRPVPVVVNGVDCEHFATARPTPEAQRVLFLGNYEYAPNVDAVEWMLDEILPRVWAHCPEARMSVCGYALPAEWAQRWSDPRIEWQGFVPDLLQLQSSSSVFLAALRHGGGSKLKVLEALAAGLPLASTAQGVSGLELRDGEDYLGGESAEQLANAVVRLLQDPAQARALGENGRAYVRRAHDWSVAASQLEQVYAGLAEGAPACA”, “soluble”. To “MGSSHHHHHHSSGRENLYFQGMIYQPDENRYHTMEYRRCGRSGVKLPAISLGLWHNFGDTTRVENSRALLQRAFDLGITHFDLANNYGPPPGSAECNFGRILQEDFLPWRDELIISTKAGYTMWDGPYGDWGSRKYLIASLDQSLKRMGLEYVDIFYHHRPDPETPLKETMKALDHLVRHGKALYVGISNYPADLARQAIDILEDLGTPCLIHQPKYSLFERWVEDGLLALLQEKGVGSIAFSPLAGGQLTDRYLNGIPEDSRAASGSRFLKPEQITADKLEKVRRLNELAARRGQKLSQMALAWVLRNDNVTSVLIGASKPSQIEDAVGMLANRRFSAAECAEIDAILEGRF” belongs “soluble”; to “MGSSHHHHHHSSGRENLYFQGMTKSKNNPGRGNTIRESNTMKVMEEIREKIRKAIKEGVSLREIEEIILQEAMMEEREAYLEVEDDHKNGTYFRYLGTGDGVLRLRVPRTRKGGFRPKILPEKYERTSPDYEDFLQQLVLSGMTPSQVKAVLAAKGIPYSEIVMNRVAERISNKLKEYKSRELPHDLLALYIDVKIVKVRISESIMERAIYIAIGVDLEGNKFVLDYEVRDREDLDGWKSFLSGLVSRGVSRVDVIVSDDFSGLDRVVSTLFPSSQHQLCITHMVRNLMRVLPDKEKEELMIRVRDLKSSRNVEEGRKAILSLSQLVQPFSPARAKRLLDAADKYCSFLNFPREIRHYLYTNNTSESFNLTLARFEEELGGYFPSLRSLEVYLYVSIHESNSRWKFRPMSVIRHYSYHLKQLHASRFQVSLDEDF”, “soluble”. Consider “MGSSHHHHHHSSGRENLYFQGVRPAVIAATGLYTPPDSVSNAELVEAFNTYVANFNAANKARIEAGEIEPLQPSSSEFIEKASGIKSRYVVAKPGIVDPDVMRPIIPERSNDELSILAEMAVTAAEQAIERWGKPRERIGAVLCACSNMQRAYPAMAIEVQNALGLGGFAFDMNVACSSATFGLKTAADFVGGGSVDAVLMVNPEICSGHLNFRDRDSHFIFGDVATAAIVERADDAQGGWSILGTKLKTQFSNNIRNNAGFLNRAWPEGRDKADKLFVQQGRKVFKEVVPLVSEMIIEHAREIGIDPHGLKRMWLHQANINMNEIIGRKVLGRDPTRDENVIILDDYANTSSAGSIIAFHKHQDDMAQGDLGLICSFGAGYSAGTVFVQKR”, for which the “soluble on expression in E. coli” value was “soluble”. To “MGTKREKDSLAFLLNSGARLLNNAFERRISEAGLGLTPGEARALLTVAVVDGSKQSDIAARLGIEPMTICAYLDKLQSLDLIERQQDPQDRRSKRIVLTKNSTDMLEAVRQEIDELVRHATRGLNEDEVALFRSFLQTLRDNLQPEQPGQSC” belongs “soluble”; to “MGTRSKRSERCARCRLHIHRCVCPAMPRYSLATRVVLVMHHREYPKTTATGPLALEILPNSELRIHGEPGRSLNLSDLDTPARRILLLYPGDDVPVLDRELLERDGRPVTLVVPDGTWRQASRMGRRLPGLARAEMVRLPPGPPTEWGVRRENHPQGLATFEAIARALGIIESPDVQSGMEHLFRLMVRQTLGARGCAVDRDLEHHHHHH”, “soluble”; to “MGTVEKSSNNDASVTDDIRSAEYYHGMVPRQDAEGFLKREGDFLVRKTEQMPGKVVLAMSVRVTDELCRHFMLNMDPTSNKFYFEHTHQESTISELINWHMTTKTPISAASGAKIRRPMERSPWLINHDSIVANKKLGEGAFGDVFIAELDQGGKQEVAVKTMRAEATREARLRFMKEARLMRKYQHKHVVKLIGVAIHEHPLMIVMEYCPNGSLLSHLKKNKVSLIEKLRFTTEAADGIAYLERSKCIHRDIAARNCLLSAKNELKISDFGMSDNKDEIKDETLEKVPIKWLAPETMQEKVYTHKTDIWTFGVLVWEIYSDGAEPYPGLTKIQTRAKIVVNDYRMKMPDGTHPTVADVVTGTCWQKNPEKRSTMDSIHKKLREFYESKK”, “not soluble”.

Take “MGVFAQNLKFGHINAQEIVSAMPEFAKAQSDIEALDKQLTSELQRTQEEFNKKYQEFQQAIAKDSLPANIAERRQKELQDMMQRQEQFQQEAQQQMQKAQADAMAPIYKKLDDAIKAVGAAEGVIYIFDLARTPVAYVNESQSINLTPKVKTQLGIK”: the “soluble on expression in E. coli” value was “not soluble”.

As to “MGVPMGNGDCGAEFKCPPNFHKSNRVNGVWCIKVYPGNMTWWEAERECRCTIKGGHLSGIESNSEKRYVEEQTLSILDDKNIKNGAVWLGAYRRKECPSGKVSSDSICHDEKTFQFTDQHTCKTLIFQDWAANQPTNNAGDDCAVLLASTEASGSNSEASGKAAVKNCLHVQGTTPILSSVGFVCGVKAAQEGGNYGGYGGGDFMVIGAAKPKH”, the “soluble on expression in E. coli” value was “not soluble”. The result for “MGVSLSKGGNVSLTKEAPGLTAVIVGLGWDIRTTTGTDFDLDASALLLNSGGKVASDAHFIFFNNLKSPDGSVEHTGDNITGEGEGDDEQIKINLATVPADIEKIVFPVSIYDAENRQQSFGQVRNAFIRVVNQAGEAEIARYDLSEDASTETAMVFGELYRHGAEWKFRAIGQGYASGLRGIAQDFGVNV” reads “soluble”. The result for “MGVTLAKGGNVSLSKEAPGLTAVTVGLGWDVRTTTGAAYDLDASALLCSGSGRVVSDLHFVFYNNLTSPDGSVQHTGDNLTGEGEGDDESINVELAQVPAEVTKIVFPVSIHEAQSRGQSFGQVSNAFIRVVNRANNVELARYDLSEDASTETAMVFGELYRHGGEWKFRAVGQGYASGLAGIASDYGVNV” reads “not soluble”; that for “MGWQTLKQQSVPARKRLLYLHIPFCATHCTFCGFYQNKLRDDSTATYTRYLLQELAMEADSPLHQSAPIHAVYFGGGTPTALAADELSQIIRAIRTSLPLAPDCEITVEGRAMDFDDERIDACLDAGANRFSIGIQTFDTRIRQRMARTSDKQQSIRFLERLCGRDRAAVVCDLMFGLPGQTPEIWREDLAIVSDLPLDGVDLYALNLLPTTPLAKAAENQRVALPDVVARRDFYRTGAAFLADSGWHQLSNSHWARTTRERNLYNLLIKQGADCLAMGSGAGGNINGQAYMMERSLERYYQQIDQGQKPIMMMTPASSTGPWQHQLQAGIEVGRIKLPQLTQHARELQPLLSQWHQAGLTCDDSTCLRLTNDGRFWANNLMQALQQIIPQLNAEEHAHLEHHHHHH”, “not soluble”. To “MGYCIIIPAYNAARTLPAVVREVLGLGMPCLVVDDGSTDGTSATVEGLGVHLLRHDGNRGKGAALRTGFEWALAHGYSGVVTLDADGQHDPTAIPLLAATARERNVDILIASRDTQFREMAGLRSVWNRFGVWCMRKRTGFTITDSQSGFRWYSARLLKGVSLEASGYHLEMEILMKAWRGGFAIDSLPVAARVADGRATSHFRPVRDTWNICMTFLRHMLEHHHHHH” belongs “soluble”; to “MGYDVTRFQGDVDEDLICPICSGVLEEPVQAPHCEHAFCNACITQWFSQQQTCPVDRSVVTVAHLRPVPRIMRNMLSKLQIACDNAVFGCSAVVRLDNLMSHLSDCEHNPKRPVTCEQGCGLEMPKDELPNHNCIKHLRSVVQQQQSRIAELEKTSAEHKHQLAEQKRDIQLLKAYMRAIRSVNPNLQNLEETIEYNEILEWVNSLQPARVTRWGGMISTPDAVLQAVIKRSLVESGCPASIVNELIENAHERSWPQGLATLETRQMNRRYYENYVAERIPGKQAVVVMACENQHMGDDMVQEPGLVMIFAHGVEEI”, “soluble”; to “MHAFTTERLLIRPLISEDEHFYCYQYTDKKMMRIVGEPLTQEQASAAFHRALKANNLEQDTVRTWAIVDKAANDIIGTQALSWLATRQTTKPSSSPIEQVEIGIMLATRANGKLLPEEAVSAIMEYGFKQLNIGRINAFYANKNRATQRILKKIGYIFEPCLQDNTTDNGYQYFEQHQWSGVIITQLFPEEIEIKEPTVND”, “not soluble”.

Turning to “MHANGIFFVPKYSSKYGKKQQTEKQWPVPEMGWQPGAVNSNFALQSSALILIGGFIRIIKVDSNATSCIHFGGIDAKPLLLQMNAYSLPAAEIRTKNGRIVARVF”, the “soluble on expression in E. coli” value is “not soluble”.

Take “MHDEQFCVGYNFLEAEDTFREDGLEPVTLAIHGTPEVLQLLGNKPLNWDGPISFGLFVDFHSQKALNYISMLHKCDAAFKRQMTVHFAFRISPSQSECPMIQVLGYQDCATFLQKSKQLLEEIEDSFQIYPINLMRNIARRGAKSDLHLIIDTDMMMSTNFAKMVKPIANRMIDGKNKQVLVVRRFETNENELPMSFGDLEEGIENHKTFQFHHKFFFVGHQIPNLMEWFERSHASNDVVAWEIPYTGNDWEVQIILHRNDPYNVEYFPSRVKDMQSLIYKLCRANYTFNLLSHVFNVHKGIKEDDTMYSKVVTAHTKRQGRLRTLSRYVTEIDRKYPDTMKRCGQFLL”: the “soluble on expression in E. coli” value is listed as “not soluble”. The result for “MHDNTIKSISKDYFDYLQTESKFIPLENETIEFYSPIVDYFGDSISVNISFSGDRYKLTDHGETLWNMEQLGIDLTSNKKQKKYQLLNNIVQNYSLVIENKHINFYTNRINLSQAIHDYVLAISEISYLGILKKENIKSLFKDEVMQYFLSNRKIYPNIFPEFKVEGKSKLIHSFEAVFPGEATEYVKTIKRIDKNNAKNVLFDWNDVEIHRNKNFDSNARLNIITEQQDDISEAVSTMLSQYNVEVFSFENKKQLEEKFSNV” reads “not soluble”; that for “MHENQQPQTEAFELSAAEREAIEHEMHHYEDPRAASIEALKIVQKQRGWVPDGAIHAIADVLGIPASDVEGVATFYSQIFRQPVGRHVIRYCDSVVCHINGYQGIQAALEKKLNIKPGQTTFDGRFTLLPTCCLGNCDKGPNMMIDEDTHAHLTPEAIPELLERYK”, “not soluble”.

Source of the values: the DeepSol protein solubility set.
